Assays:
[1] = molecular target: T1, recombinant human neurotrophin-3 (human, UniProt P20783 139-257); assay: ELISA (Example 7): plate coated with 1 µg/ml of the antigen, antibody at the highest concentration of the titration, anti-IgG-HRP, TMB
T1 construct: also called NT3; NT-3
T1 sequence (looked up): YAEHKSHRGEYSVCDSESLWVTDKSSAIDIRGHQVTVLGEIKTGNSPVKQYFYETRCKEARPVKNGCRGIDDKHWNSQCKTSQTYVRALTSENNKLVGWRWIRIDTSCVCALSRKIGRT
Experimental: (§1) NUNC plates were coated with 1 μg/ml of a neurotrophin or chemokine in 1×PBS overnight. […] Plates were washed and a 1/5000 dilution of anti-IgG-HRP (horse radish peroxidase) in blocking buffer was added for 1 h (100 μL total volume). Plates were washed and developed by addition of 3,3′,5,5′-Tetramethylbenzidine (TMB) substrate and subsequently stopped with phosphoric acid.

[2] = molecular target: T2, recombinant human CXCL13 (human, UniProt O43927 23-109); assay: as above
T2 sequence (looked up): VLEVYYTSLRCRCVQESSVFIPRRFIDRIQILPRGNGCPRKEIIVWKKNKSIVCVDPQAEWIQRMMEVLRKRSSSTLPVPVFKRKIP
Experimental: as §1

[3] = molecular target: T3, p75NTR receptor (immobilised on the SPR flow cell) (Homo sapiens (Human), UniProt P08138 29-250); assay: as above
T3 construct: also called p75 neurotrophic receptor; LNGFR
T3 sequence: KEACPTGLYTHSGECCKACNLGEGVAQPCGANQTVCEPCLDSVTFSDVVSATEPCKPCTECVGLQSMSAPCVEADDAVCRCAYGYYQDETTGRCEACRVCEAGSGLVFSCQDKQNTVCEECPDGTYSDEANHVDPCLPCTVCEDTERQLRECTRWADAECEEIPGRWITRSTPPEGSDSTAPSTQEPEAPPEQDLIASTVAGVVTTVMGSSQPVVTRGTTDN
Experimental: as §1

[4] = molecular target: T4, recombinant human beta-NGF (human, UniProt P01138 122-241); assay: as above
T4 construct: also called β-NGF; Nerve Growth Factor
T4 sequence (P01138 122-241 limits assumed): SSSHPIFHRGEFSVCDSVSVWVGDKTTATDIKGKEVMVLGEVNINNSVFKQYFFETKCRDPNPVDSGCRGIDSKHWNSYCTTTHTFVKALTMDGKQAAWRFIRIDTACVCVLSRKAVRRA
Experimental: as §1

[5] = molecular target: T5, recombinant human CXCL10 (human, UniProt P02778 22-98); assay: as above
T5 sequence (looked up): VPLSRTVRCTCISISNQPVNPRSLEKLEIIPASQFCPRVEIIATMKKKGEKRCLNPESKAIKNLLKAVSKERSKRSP
Experimental: as §1

[6] = molecular target: T6, recombinant human neurotrophin-4 (human, UniProt P34130 81-210); assay: as above
T6 construct: also called NT4; NT-4
T6 sequence (looked up): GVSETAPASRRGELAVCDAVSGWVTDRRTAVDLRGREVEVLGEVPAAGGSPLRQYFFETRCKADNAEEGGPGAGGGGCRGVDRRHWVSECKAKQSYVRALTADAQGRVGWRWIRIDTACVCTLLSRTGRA
Experimental: as §1

[7] = molecular target: T7, recombinant human CXCL9 (human, UniProt Q07325 23-125); assay: as above
T7 sequence (looked up): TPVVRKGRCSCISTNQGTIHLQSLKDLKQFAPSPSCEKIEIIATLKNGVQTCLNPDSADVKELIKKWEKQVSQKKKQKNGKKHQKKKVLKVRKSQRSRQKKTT
Experimental: as §1

[8] = molecular target: T8, human brain-derived neurotrophic factor (BDNF) (human, UniProt P23560 129-247); assay: SPR, Biacore T200; immobilised human BDNF; 37 C (same data as Table 10)
T8 construct: In the HTRF assays the BDNF was biotinylated; also called hBDNF; human BDNF
T8 sequence: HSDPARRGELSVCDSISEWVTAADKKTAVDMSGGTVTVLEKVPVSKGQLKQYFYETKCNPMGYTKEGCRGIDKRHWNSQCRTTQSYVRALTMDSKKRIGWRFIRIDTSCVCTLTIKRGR
Experimental: (§2) All SPR experiments were performed at 37° C. and a data collection rate of 1 Hz with HBS-EP+ used as both the sample and running buffer. The resulting sensorgrams were double referenced with buffer injections and a non-derivatized flow cell surface. Rate constants were determined by applying a 1:1 Langmuir binding model using the T200 evaluation software v1.0 and the equation KD=kd/kₐ.

[9] = molecular target: T9, endogenous rat BDNF in plasma (rat, UniProt P23363 131-249, limits assumed); assay: ligand-binding assay (Gyrolab) for total BDNF in plasma of dosed rats
T9 construct: also called endogenous BDNF
T9 sequence (looked up): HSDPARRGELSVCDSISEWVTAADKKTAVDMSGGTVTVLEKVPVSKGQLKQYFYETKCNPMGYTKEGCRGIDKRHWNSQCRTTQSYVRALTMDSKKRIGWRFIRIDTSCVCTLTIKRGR
Experimental: Sample concentrations were determined by interpolation from a standard curve that was fitted using a 5-parameter logistic curve fit with 1/y² response weighting.

[10] = molecular target: T8, human brain-derived neurotrophic factor …; assay: SPR, Biacore T200; human BDNF amine-coupled to CM5, antibody injected; 1:1 Langmuir; 37 C
Experimental: as §2
The dissociation phase for the highest concentration of antibody was extended to 4000 seconds to achieve a signal decay minimum of 5%. The kinetic rate constants were determined using a Langmuir 1:1 binding model and T200 evaluation software v1.0.

[11] = molecular target: T8, human brain-derived neurotrophic factor …; assay: competition HTRF (Example 12): 1 nM biotinylated human BDNF, europium cryptate labelled H1, SA-XL665, unlabelled antibody titrated; competitor: labelled H1; x axis is log10 of pM by the text
Experimental: Reagents were added sequentially on the MiniTrak Liquid Handling Platform (Perkin-Elmer) into 384-well low volume black plates (Nunc).

[12] = molecular target: T8, human brain-derived neurotrophic factor …; assay: cell-based or functional assay
[13] = molecular target: T8, human brain-derived neurotrophic factor …; assay: SPR, Biacore T200; immobilised human BDNF; 37 C
Experimental: as §2

[14] = molecular target: T1, recombinant human neurotrophin-3; assay: ELISA (Example 14, conditions of Example 7): plate coated with 1 µg/ml of the antigen, antibody at the highest concentration of the titration, anti-IgG-HRP, TMB
[15] = molecular target: T2, recombinant human CXCL13; assay: as above
[16] = molecular target: T10, recombinant CXCL3 (Homo sapiens (Human), UniProt P19876 35-107); assay: as above
T10 sequence: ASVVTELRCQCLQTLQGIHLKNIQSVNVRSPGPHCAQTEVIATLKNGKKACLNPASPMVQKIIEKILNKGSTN

[17] = molecular target: T3, p75NTR receptor (immobilised on the SPR …); assay: as above
[18] = molecular target: T4, recombinant human beta-NGF; assay: as above
[19] = molecular target: T5, recombinant human CXCL10; assay: as above
[20] = molecular target: T6, recombinant human neurotrophin-4; assay: as above
[21] = molecular target: T7, recombinant human CXCL9; assay: as above

B1: anti-BDNF antibody R3BH1 (chicken-human chimeric IgG) (antibody, V domains shown)
VH: AVTLDESGGGLQTPGGGLSLVCKASGFDFSSYDMHWVRQAPGKGLEWVAGIDDGGSDTYYGSAVKGRATISRDNGQSTVRLQLNNLRAEDTGTYYCAKSSYDISWNGHVENIDAWGHGTEVIVSS
VL: ALTQPTSVSTNLGGTVEITCSGAGSGYGYGWFQQKSPGSAPVTVIYSNDKRPSDIPSRFSGSKSGSTGTLTITGVQAEDEAVYFCGTYDSTDAGYAIFGAGTTLTVL
notes: also called R3BH1 IgG; chimeric R3BH1
- binding result [1]: no binding (tested: 300 µg/mL)
- binding result [2]: no binding (tested: 300 µg/mL)
- binding result [3]: no binding (tested: 300 µg/mL)
- binding result [4]: no binding (tested: 300 µg/mL)
- binding result [5]: no binding (tested: 300 µg/mL)
- binding result [6]: no binding (tested: 300 µg/mL)
- binding result [7]: no binding (tested: 300 µg/mL)
- Kd [8]: 34.4 nM
- T1/2 [8]: 1.13 min
- koff [8]: 0.0103 s⁻¹
- kon [8]: 300000 M⁻¹ s⁻¹
- binding result [9]: binds
- Kd [10]: 34.4 nM
- T1/2 [10]: 1.13 min
- koff [10]: 0.0103 s⁻¹
- kon [10]: 303000 M⁻¹ s⁻¹

B2: humanised affinity matured anti-BDNF antibody B30 (antibody, V domains shown)
VH: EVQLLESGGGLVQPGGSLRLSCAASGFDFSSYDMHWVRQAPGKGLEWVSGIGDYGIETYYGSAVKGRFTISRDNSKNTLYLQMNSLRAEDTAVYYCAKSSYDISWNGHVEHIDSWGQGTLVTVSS
VL: SSELTQPPAVSVALGQTVRITCSGAGSGYGYGWYQQKPGQAPVTVIYSNDKRPSGIPDRFSGSSSGNTASLTITGAQAEDEADYYCGTYVSAYYGYAIFGGGTKLTVL
- IC50 (read off the curve) [11]: ~1 nM
- PathHunter pTrkB assay in U2OS TrkB/p75NTR cells, 300 pM BDNF [12]: 0.54 nM
- pERK assay in U2OS TrkB/p75NTR cells, 150 pM BDNF [12]: 1.3 nM
- Kd [13]: 0.12 nM
- T1/2 [13]: 5.58 h
- koff [13]: 3.5e-05 s⁻¹
- kon [13]: 290000 M⁻¹ s⁻¹
- binding result [14]: no binding (tested: 300 µg/mL)
- binding result [15]: no binding (tested: 300 µg/mL)
- binding result [16]: no binding (tested: 300 µg/mL)
- binding result [17]: no binding (tested: 300 µg/mL)
- binding result [18]: no binding (tested: 300 µg/mL)
- binding result [19]: no binding (tested: 300 µg/mL)
- binding result [20]: no binding (tested: 300 µg/mL)
- binding result [21]: no binding (tested: 300 µg/mL)
- binding result [9]: binds

B3: humanised affinity-optimized anti-BDNF antibody B20 (antibody, V domains shown)
VH: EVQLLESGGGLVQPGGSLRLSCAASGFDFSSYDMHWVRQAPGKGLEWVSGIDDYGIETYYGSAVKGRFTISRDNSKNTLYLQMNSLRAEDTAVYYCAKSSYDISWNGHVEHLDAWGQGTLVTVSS
VL: SSELTQPPAVSVALGQTVRITCSGAGSGYGYGWYQQKPGQAPVTVIYSNDKRPSGIPDRFSGSSSGNTASLTITGAQAEDEADYYCGTYDSTDAGYAIFGGGTKLTVL
- IC50 (read off the curve) [11]: ~1 nM
- PathHunter pTrkB assay in U2OS TrkB/p75NTR cells, 300 pM BDNF [12]: 0.31 nM
- pERK assay in U2OS TrkB/p75NTR cells, 150 pM BDNF [12]: 1.1 nM
- Kd [13]: 0.55 nM
- T1/2 [13]: 1.26 h
- koff [13]: 0.000154 s⁻¹
- kon [13]: 280000 M⁻¹ s⁻¹
- binding result [14]: no binding (tested: 300 µg/mL)
- binding result [15]: no binding (tested: 300 µg/mL)
- binding result [16]: no binding (tested: 300 µg/mL)
- binding result [17]: no binding (tested: 300 µg/mL)
- binding result [18]: no binding (tested: 300 µg/mL)
- binding result [19]: no binding (tested: 300 µg/mL)
- binding result [20]: no binding (tested: 300 µg/mL)
- binding result [21]: no binding (tested: 300 µg/mL)

B4: humanised affinity-optimized anti-BDNF antibody B18 (antibody, V domains shown)
VH: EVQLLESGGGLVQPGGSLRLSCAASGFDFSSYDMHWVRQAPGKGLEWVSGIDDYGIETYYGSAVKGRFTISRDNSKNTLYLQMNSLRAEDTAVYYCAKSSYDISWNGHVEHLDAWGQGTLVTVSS
VL: SSELTQPPAVSVALGQTVRITCQGDSSGYGYGWYQQKPGQAPVTVIYGKNNRPSGIPDRFSGSSSGNTASLTITGAQAEDEADYYCGTYVSAYYGYAIFGGGTKLTVL
- IC50 (read off the curve) [11]: ~0.6 nM
- PathHunter pTrkB assay in U2OS TrkB/p75NTR cells, 300 pM BDNF [12]: 0.29 nM
- pERK assay in U2OS TrkB/p75NTR cells, 150 pM BDNF [12]: 0.95 nM
- Kd [13]: 0.0994 nM
- T1/2 [13]: 7.03 h
- koff [13]: 2.8e-05 s⁻¹
- kon [13]: 290000 M⁻¹ s⁻¹
- binding result [14]: no binding (tested: 300 µg/mL)
- binding result [15]: no binding (tested: 300 µg/mL)
- binding result [16]: no binding (tested: 300 µg/mL)
- binding result [17]: no binding (tested: 300 µg/mL)
- binding result [18]: no binding (tested: 300 µg/mL)
- binding result [19]: no binding (tested: 300 µg/mL)
- binding result [20]: no binding (tested: 300 µg/mL)
- binding result [21]: no binding (tested: 300 µg/mL)

From US20160207991A1 (Pfizer, published 2016)
